Data as given in patent US20220105163A1.

Molecular target: Recombinant human IL-6 (human) (UniProt P05231)
Assay: cell-based or functional assay

Sequence of Recombinant human IL-6 (human) (P05231 30-212 limits assumed): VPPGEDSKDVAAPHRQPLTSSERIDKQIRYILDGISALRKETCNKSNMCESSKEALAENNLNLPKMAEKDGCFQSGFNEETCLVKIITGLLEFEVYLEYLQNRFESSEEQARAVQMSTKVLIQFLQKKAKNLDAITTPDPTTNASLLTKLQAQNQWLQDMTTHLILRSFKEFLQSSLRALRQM

B1: ALD518 (antibody, INN chains, looked up, V domains shown)
VH: EVQLVESGGGLVQPGGSLRLSCAASGFSLSNYYVTWVRQAPGKGLEWVGIIYGSDETAYATSAIGRFTISRDNSKNTLYLQMNSLRAEDTAVYYCARDDSSDWDAKFNLWGQGTLVTVSS
VL: AIQMTQSPSSLSASVGDRVTITCQASQSINNELSWYQQKPGKAPKLLIYRASTLASGVPSRFSGSGSGTDFTLTISSLQPDDFATYYCQQGYSLRNIDNAFGGGTKVEIK
  IC50 (µg/mL), IL-6 induced TF-1 proliferation: 0.629 µg/mL
